Test results as given in the supplement of paper PMC6757056.
± gives the standard deviation of the averaged measurements.

B1: library; a variant is named by its letters at N, in order (parent)
chain: GCUGUCACCGAGAAACUGUGAAGUAUAUCUUAAACCUGGGCACUUAAAAGAUAUAUGGAGUUAGUAGUGCAACCUGCUCGGUCUGAUGAGUCCNNNNNNGGACGAAACAGC

Tests used:
cyclic di-GMP [1] = variants of: B1; assay: normalized RNA/DNA level without ligand (relative to sTRSVctl = 100) (log10 (% of sTRSVctl)); HEK293T; ligand: cyclic di-GMP (c-di-GMP-II aptamer); higher = less ribozyme self-cleavage, higher mRNA level; settings: reporter: mCherry (pCS4076), ligand present: no
Procedure, shortened: (§1)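 Library plasmids encoding reporter-linked ribozyme switches (mCherry, or eGFP for some folinic acid experiments) were transfected into HEK293T at 4 µg per 6-well well. Ligand, when used, was added 1 h before transfection. Total RNA was extracted with EDTA 72 h later, then reverse-transcribed, amplified, barcoded and sequenced. RNA level was RNA reads over DNA reads, divided by a spiked-in non-cleaving control (or the top 25 sequences), ×100, log10; only sequences with ≥100 DNA reads were kept.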

cyclic di-GMP [2] = variants of: B1; assay: normalized RNA/DNA level with ligand (relative to sTRSVctl = 100) (log10 (% of sTRSVctl)); HEK293T; ligand: cyclic di-GMP (c-di-GMP-II aptamer); ligand concentration (+) RNA-Seq: 1 mM; higher = less ribozyme self-cleavage, higher mRNA level; settings: reporter: mCherry (pCS4076), ligand present: yes
Procedure, shortened: as §1

| Variant | normalized RNA/DNA level without ligand (log10) (cyclic di-GMP [1]) | normalized RNA/DNA level with ligand (log10) (cyclic di-GMP [2]) |
| --- | --- | --- |
| GCAGUC | 1.31 ± 0.064 | 1.51 ± 0.1 |
| GCAGUU | 1.45 ± 0.082 | 1.65 ± 0.11 |
| GCAGUG | 1.736 ± 0.0028 | 1.78 ± 0.11 |
| UCAAUC | 1.63 ± 0.01 | 1.8 ± 0.12 |
| ACAUCA | 1.683 ± 0.013 | 1.79 ± 0.063 |
| ACAUCC | 1.68 ± 0.047 | 1.83 ± 0.14 |
| ACAUCU | 1.6 ± 0.07 | 1.76 ± 0.092 |
| ACAUCG | 1.51 ± 0.1 | 1.71 ± 0.16 |
| UAUUUU | 1.73 ± 0.062 | 1.84 ± 0.13 |
| GCACUG | 1.54 ± 0.092 | 1.75 ± 0.074 |
| UCACUC | 1.73 ± 0.068 | 1.89 ± 0.12 |
| UCACUG | 1.632 ± 0.0038 | 1.81 ± 0.16 |
| UCACUA | 1.51 ± 0.022 | 1.73 ± 0.099 |
| ACAGUC | 1.62 ± 0.045 | 1.78 ± 0.11 |
| ACAGUG | 1.51 ± 0.11 | 1.68 ± 0.067 |
| ACAGUA | 1.31 ± 0.048 | 1.51 ± 0.15 |
| ACAGCA | 1.66 ± 0.046 | 1.75 ± 0.095 |
| ACAGCC | 1.66 ± 0.027 | 1.84 ± 0.1 |
| ACAGCU | 1.55 ± 0.062 | 1.73 ± 0.12 |
| GCAACC | 1.647 ± 0.0045 | 1.79 ± 0.097 |
| GCAACG | 1.54 ± 0.046 | 1.78 ± 0.11 |
| GCAACU | 1.582 ± 0.0092 | 1.77 ± 0.13 |
| GCCACU | 1.684 ± 0.016 | 1.86 ± 0.12 |
| GCCACA | 1.654 ± 0.016 | 1.81 ± 0.089 |

| Variant | normalized RNA/DNA level without ligand (log10) (cyclic di-GMP [1]) | normalized RNA/DNA level with ligand (log10) (cyclic di-GMP [2]) |
| --- | --- | --- |
| GCCACG | 1.68 ± 0.051 | 1.81 ± 0.12 |
| GCAGCG | 1.83 ± 0.035 | 1.92 ± 0.072 |
| GCAGCA | 1.82 ± 0.022 | 1.89 ± 0.092 |
| GCAGCC | 1.6725 ± 0.00097 | 1.83 ± 0.14 |
| ACACCA | 1.59 ± 0.029 | 1.76 ± 0.11 |
| ACACCU | 1.63 ± 0.031 | 1.81 ± 0.078 |
| ACACCC | 1.73 ± 0.012 | 1.86 ± 0.069 |
| GCAUUC | 1.423 ± 0.011 | 1.7 ± 0.17 |
| GCAUUU | 1.55 ± 0.037 | 1.74 ± 0.095 |
| GCAUUA | 1.47 ± 0.089 | 1.71 ± 0.12 |
| ACCACG | 1.633 ± 0.01 | 1.81 ± 0.12 |
| ACCACA | 1.6 ± 0.019 | 1.76 ± 0.13 |
| ACCACU | 1.61 ± 0.062 | 1.82 ± 0.087 |
| AAUUUU | 1.73 ± 0.033 | 1.85 ± 0.12 |
| CCAUGU | 1.68 ± 0.054 | 1.8 ± 0.097 |
| CCAUGA | 1.52 ± 0.033 | 1.72 ± 0.087 |
| CCAUGG | 1.65 ± 0.11 | 1.82 ± 0.02 |
| CCAGUG | 1.27 ± 0.14 | 1.48 ± 0.06 |
| ACAGAC | 1.49 ± 0.056 | 1.71 ± 0.049 |
| CCAUCA | 1.66 ± 0.052 | 1.77 ± 0.12 |
| CCAUCG | 1.73 ± 0.088 | 1.84 ± 0.1 |
| CCAUCC | 1.81 ± 0.043 | 1.92 ± 0.092 |
| CCAUCU | 1.62 ± 0.074 | 1.76 ± 0.16 |
| UCACAG | 1.667 ± 0.0019 | 1.83 ± 0.083 |

| Variant | normalized RNA/DNA level without ligand (log10) (cyclic di-GMP [1]) | normalized RNA/DNA level with ligand (log10) (cyclic di-GMP [2]) |
| --- | --- | --- |
| UCACAA | 1.547 ± 0.011 | 1.72 ± 0.087 |
| UCACAU | 1.58 ± 0.048 | 1.78 ± 0.087 |
| UCACAC | 1.7 ± 0.0024 | 1.81 ± 0.13 |
| GCAUGC | 1.68 ± 0.026 | 1.81 ± 0.097 |
| GCAUGG | 1.46 ± 0.15 | 1.67 ± 0.064 |
| GCAUGA | 1.38 ± 0.1 | 1.54 ± 0.086 |
| UCACGC | 1.7 ± 0.045 | 1.84 ± 0.08 |
| UCACGG | 1.82 ± 0.07 | 1.9 ± 0.1 |
| CCACAC | 1.65 ± 0.037 | 1.79 ± 0.073 |
| CCACAA | 1.51 ± 0.032 | 1.7 ± 0.11 |
| CCACAG | 1.54 ± 0.028 | 1.75 ± 0.18 |
| ACCAGG | 1.71 ± 0.037 | 1.77 ± 0.088 |
| ACCAGC | 1.63 ± 0.064 | 1.77 ± 0.079 |
| ACCAGA | 1.39 ± 0.11 | 1.6 ± 0.13 |
| ACACUG | 1.48 ± 0.04 | 1.68 ± 0.077 |
| ACACUC | 1.637 ± 0.0033 | 1.77 ± 0.11 |
| ACACUU | 1.47 ± 0.091 | 1.72 ± 0.092 |
| GCCCCC | 1.78 ± 0.026 | 1.88 ± 0.084 |
| GCCCAU | 1.67 ± 0.036 | 1.85 ± 0.15 |
| GCCCAG | 1.9 ± 0.036 | 1.97 ± 0.095 |
| GCCCAC | 1.656 ± 0.0072 | 1.82 ± 0.14 |
| GCCCAA | 1.616 ± 0.011 | 1.77 ± 0.17 |
| UCCAUA | 1.53 ± 0.033 | 1.74 ± 0.13 |
| UCCAUC | 1.7 ± 0.0059 | 1.8 ± 0.13 |

| Variant | normalized RNA/DNA level without ligand (log10) (cyclic di-GMP [1]) | normalized RNA/DNA level with ligand (log10) (cyclic di-GMP [2]) |
| --- | --- | --- |
| UCCAUU | 1.63 ± 0.023 | 1.81 ± 0.14 |
| UCCAUG | 1.67 ± 0.021 | 1.85 ± 0.15 |
| UCACCU | 1.7414 ± 0.00048 | 1.89 ± 0.12 |
| UCACCC | 1.83 ± 0.032 | 1.88 ± 0.096 |
| UCACCG | 1.75 ± 0.024 | 1.89 ± 0.12 |
| UCAACA | 1.708 ± 0.0058 | 1.81 ± 0.096 |
| UCAACG | 1.77 ± 0.024 | 1.89 ± 0.096 |
| UCAACC | 1.78 ± 0.044 | 1.9 ± 0.067 |
| UCAACU | 1.707 ± 0.0018 | 1.86 ± 0.069 |
| UCAUGG | 1.77 ± 0.019 | 1.9 ± 0.08 |
| UCAUGC | 1.71 ± 0.081 | 1.89 ± 0.045 |
| UCAUGA | 1.57 ± 0.026 | 1.75 ± 0.12 |
| ACCAUU | 1.56 ± 0.032 | 1.79 ± 0.1 |
| ACCAUC | 1.68 ± 0.04 | 1.81 ± 0.13 |
| ACCAUG | 1.61 ± 0.099 | 1.74 ± 0.057 |
| UCCCCA | 1.79 ± 0.034 | 1.91 ± 0.2 |
| ACCCAG | 1.777 ± 0.0092 | 1.86 ± 0.06 |
| ACCCAU | 1.61 ± 0.018 | 1.79 ± 0.12 |
| ACCCAA | 1.56 ± 0.03 | 1.74 ± 0.15 |
| CCCCAA | 1.59 ± 0.018 | 1.76 ± 0.14 |
| CCCCAG | 1.679 ± 0.008 | 1.82 ± 0.11 |
| UCAGGC | 1.71 ± 0.027 | 1.84 ± 0.11 |
| UCAGGU | 1.58 ± 0.12 | 1.76 ± 0.12 |
| UCAGGG | 1.64 ± 0.023 | 1.81 ± 0.12 |

| Variant | normalized RNA/DNA level without ligand (log10) (cyclic di-GMP [1]) | normalized RNA/DNA level with ligand (log10) (cyclic di-GMP [2]) |
| --- | --- | --- |
| UCAGGA | 1.45 ± 0.071 | 1.67 ± 0.099 |
| UCAAGU | 1.52 ± 0.048 | 1.73 ± 0.1 |
| UCAAGG | 1.8 ± 0.067 | 1.89 ± 0.12 |
| UCAAGA | 1.52 ± 0.0098 | 1.74 ± 0.098 |
| UCAAGC | 1.63 ± 0.031 | 1.76 ± 0.1 |
| UCAUUC | 1.69 ± 0.051 | 1.85 ± 0.084 |
| UCAUUG | 1.617 ± 0.0034 | 1.82 ± 0.082 |
| GCCAGU | 1.604 ± 0.016 | 1.82 ± 0.098 |
| GCCAGA | 1.48 ± 0.05 | 1.68 ± 0.1 |
| GCCAGC | 1.67 ± 0.064 | 1.83 ± 0.18 |
| CCACCA | 1.7068 ± 0.0011 | 1.82 ± 0.11 |
| CCACCG | 1.74 ± 0.078 | 1.89 ± 0.14 |
| CCACCC | 1.798 ± 0.016 | 1.87 ± 0.097 |
| UCCACU | 1.695 ± 0.011 | 1.85 ± 0.12 |
| UCCACG | 1.77 ± 0.057 | 1.87 ± 0.11 |
| UCCACC | 1.635 ± 0.0036 | 1.8 ± 0.12 |
| UCCACA | 1.74 ± 0.035 | 1.87 ± 0.12 |
| GCAAUU | 1.48 ± 0.086 | 1.69 ± 0.1 |
| GCCAUC | 1.564 ± 0.0079 | 1.77 ± 0.074 |
| GCCAUG | 1.59 ± 0.051 | 1.79 ± 0.066 |
